Drawing on paper PMC2821091, this text covers stoichiometry N for 1 substance.

The target in the assay is porcine dentin sialoprotein (DSP) (porcine). Kind of assay: SDS-PAGE and Western blot under oxidizing.

“porcine dentin sialoprotein (DSP) (natural protein)” registered a stoichiometry N of 2.
